From doi:10.1101/2020.09.17.302869 come the findings set out here.

Read-outs that look alike come from different tables or passages of the source.

Common to all, as to test: MST
For assay [1], the target named is sarco/endoplasmic reticulum Ca2+-ATPase (SERCA), native rabbit, detergent solubilized (rabbit) (UniProt P04191).
The target is the same in assay [2]. The source holds these as a separate data set.
Assay [3] has the same target. The source holds these as a separate data set.

Chain of UniProt P04191 (P04191 whole entry): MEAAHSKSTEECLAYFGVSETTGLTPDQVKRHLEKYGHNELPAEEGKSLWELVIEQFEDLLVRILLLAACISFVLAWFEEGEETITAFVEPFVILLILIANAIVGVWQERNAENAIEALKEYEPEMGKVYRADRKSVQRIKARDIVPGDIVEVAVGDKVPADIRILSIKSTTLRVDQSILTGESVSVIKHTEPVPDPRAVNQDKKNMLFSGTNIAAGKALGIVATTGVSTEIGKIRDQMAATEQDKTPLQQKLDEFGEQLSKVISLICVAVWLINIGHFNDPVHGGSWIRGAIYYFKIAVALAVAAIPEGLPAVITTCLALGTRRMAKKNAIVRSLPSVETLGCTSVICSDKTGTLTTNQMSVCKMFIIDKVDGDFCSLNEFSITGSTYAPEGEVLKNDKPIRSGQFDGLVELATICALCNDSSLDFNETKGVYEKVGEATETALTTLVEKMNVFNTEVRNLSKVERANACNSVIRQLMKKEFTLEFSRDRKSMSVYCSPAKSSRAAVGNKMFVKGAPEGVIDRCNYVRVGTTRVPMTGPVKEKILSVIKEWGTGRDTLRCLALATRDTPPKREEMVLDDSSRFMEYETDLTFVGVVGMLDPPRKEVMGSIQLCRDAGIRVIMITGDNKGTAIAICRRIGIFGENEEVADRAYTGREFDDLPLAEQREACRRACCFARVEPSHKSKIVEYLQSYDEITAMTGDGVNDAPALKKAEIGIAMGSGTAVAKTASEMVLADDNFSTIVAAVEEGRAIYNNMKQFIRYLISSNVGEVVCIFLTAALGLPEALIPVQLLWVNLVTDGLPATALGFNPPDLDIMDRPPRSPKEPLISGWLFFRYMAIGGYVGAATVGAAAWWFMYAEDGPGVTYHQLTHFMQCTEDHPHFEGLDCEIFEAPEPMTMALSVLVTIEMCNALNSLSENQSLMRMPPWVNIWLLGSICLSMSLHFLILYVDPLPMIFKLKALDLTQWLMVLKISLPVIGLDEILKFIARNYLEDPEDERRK

B1: rabbit HRC (458-640) (domain or fragment)
chain: GEEEDEDDDDEGEHHHVPHRGHRGHEEDDGGDDDDGDDSTENGHQAHRHQGHGKEEAEVTSDEHHHHVPDHGHQGHGDKEGEEEGVSTDHWHQVPRHAHHGPGGEEEGGEEELTVKAGHHVASHPPPGHRSREGHAEEHQTEVPGHHQHRMGDTDTSAERGHPASSPRQQGHPPEDTVHHHRG
In assay [1], B1 returned a fold loss of affinity on removal of residues 640-666 of 10 fold.

B2: rabbit HRC (458-520) (domain or fragment)
chain: GEEEDEDDDDEGEHHHVPHRGHRGHEEDDGGDDDDGDDSTENGHQAHRHQGHGKEEAEVTSDE
On to B2, for which the fold reduction of affinity by C-terminal truncation in assay [1] is > 1000 fold.

B3: rabbit HRC (496-656) (domain or fragment)
chain: STENGHQAHRHQGHGKEEAEVTSDEHHHHVPDHGHQGHGDKEGEEEGVSTDHWHQVPRHAHHGPGGEEEGGEEELTVKAGHHVASHPPPGHRSREGHAEEHQTEVPGHHQHRMGDTDTSAERGHPASSPRQQGHPPEDTVHHHRGSLKEEVGPESPGPAGV
As a reminder, the Kd is the concentration at which binding is half-saturated. Lower therefore signals higher affinity. As to B3, in assay [1], the Kd amounted to 140 nM; the fold decrease in affinity with increased KCl concentration is > 100 fold; the fold decrease in affinity, 200 mM against 50 mM KCl was > 300 fold. The same molecule displayed a Kd in assay [2] of 500 to 1000 nM. Besides, the dissociation constant Kd in assay [3] is 5600 nM.
